The results in this text go back to paper PMC3529917 (2012).

The term Kd denotes the equilibrium constant for the complex coming apart. Low readings indicate tighter binding, high ones weaker binding.

In the assay the target is complement C1q (Homo sapiens, UniProt P02745, C1q succinimidyl alkyne-labeled, Fz8 CRD IgG/Fc fusion). The assay can be described thus: pull-down with ELISA quantification, Scatchard.

B1: Frizzled-8 (Fz8/Fc) CRD (protein)
chain: AKELACQEITVPLCKGIGYNYTYMPNQFNHDTQDEAGLEVHQFWPLVEIQCSPDLKFFLCSMYTPICLEDYKKPLPPCRSVCERAKAGCAPLMRQYGFAWPDRMRCDRLPEQGNPDTLCMDY
The molecule B1 showed a Kd of 2.8 nM.
